Experimental findings from article PMC5378391, “Maltose binding protein-fusion enhances the bioactivity of truncated forms of pig myostatin propeptide produced in E. coli” (PLoS ONE, 2017) are described below.

The target of series [1] is Myostatin (MSTN) (UniProt O14793).
Series [2] has the same target. This is another data set of the same source.
Series [3] has as its target Pro23-98 (MBP removed by factor Xa) (pig) (UniProt O18831). Nature of the series: non-reducing SDS-PAGE; samples boiled in SDS loading buffer without beta-mercaptoethanol (unreduced) or with it (reduced); 15% gel, Coomassie blue; can show only disulfide-linked dimers.
Series [4] concerns the target T1, Myostatin (MSTN) (UniProt O14793 267-375).
T1 sequence (looked up): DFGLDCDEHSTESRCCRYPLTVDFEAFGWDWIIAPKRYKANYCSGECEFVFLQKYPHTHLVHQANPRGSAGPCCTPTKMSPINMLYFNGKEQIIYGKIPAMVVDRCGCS
Description: cell-based or functional assay.

Series [5] concerns the molecule itself. Description: non-reducing SDS-PAGE; samples boiled in SDS loading buffer without beta-mercaptoethanol (unreduced) or with it (reduced); 15% gel, Coomassie blue; can show only disulfide-linked dimers.

The molecule “Pro42-175 (MBP removed by factor Xa) (from UniProt O18831 42-175) (domain or fragment)” showed an IC50 to suppress 1 nM MSTN, (CAGA)12-luciferase reporter gene assay, after removal of MBP with Myostatin (MSTN) [1] of 44.9 nM.
As for “MBP-fused truncated pig MSTNpro containing residues 42-115 (from UniProt O18831 42-115) (domain or fragment)”, the IC50 to suppress 1 nM MSTN activity, pGL3-(CAGA)12-luciferase reporter assay in HEK293 cells in the series with Myostatin (MSTN) [2] came to 17.7 nM.
In the series with Myostatin (MSTN) [2], “MBP-fused truncated pig MSTNpro containing residues 42-175 (from UniProt O18831 42-175) (domain or fragment)” gave an IC50 to suppress 1 nM MSTN activity, pGL3-(CAGA)12-luciferase reporter assay in HEK293 cells of 2.7 nM.
For orientation: stoichiometry N means the number of molecules, sites or subunits per partner or assembly. As to “Pro23-98 (MBP removed by factor Xa) (from UniProt O18831 23-98) (domain or fragment)”, the stoichiometry N in series [3] was found to be 2.
In turn, “Full sequence MBP-fused pig MSTNpro (metalloproteinase-resistant mutant) (domain or fragment)” displayed an IC50 to suppress 1 nM MSTN activity, pGL3-(CAGA)12-luciferase reporter assay in HEK293 cells in the series with Myostatin (MSTN) [2] of 2.8 nM.
Same read-out and setting: for “MBP-fused truncated pig MSTNpro containing residues 42-218 (from UniProt O18831 42-218) (domain or fragment)” the value was 3.3 nM.

B1: MBP-fused truncated pig MSTNpro containing residues 42-98 (domain or fragment, UniProt O18831 42-98, looked up)
chain: CMWRQNTKSSRLEAIKIQILSKLRLETAPNISKDAIRQLLPKAPPLRELIDQYDVQR
Turning to B1, in the series with Myostatin (MSTN) [4], the “IC50 to suppress 1 nM MSTN activity, pGL3-(CAGA)12-luciferase reporter assay in HEK293 cells” value came to 24.1 nM.

B2: Pro42-98 (MBP removed by factor Xa) (domain or fragment, pig, UniProt O18831 42-98, looked up)
chain: B1 chain
notes: Pig myostatin propeptide (MSTNpro), residues 42-98; Derived from m4; also called MBP-removed MSTNpro domain containing residues 42-98; source: E. coli K12TB1; MBP-Pro42-98 digested with factor Xa, soluble fraction of the digest / Superdex 75 fraction f16; not shown: MBP, N-terminal, cleaved
For B2, the “stoichiometry N” value in series [5] is 2.
